Data reported in patent US20200231630A1.

How the values were obtained:
[1] = target: rsH14WIv1 monomeric HA1 head; assay: BLI, Fab and monomeric HA head
[2] = target: rsH14WIv2 monomeric HA1 head; assay: BLI, Fab and monomeric HA head
[3] = target: H1 A/Solomon Islands/3/2006 hemagglutinin, monomeric HA1 head (Influenza A virus H1N1 A/Solomon Islands/3/2006) (UniProt B4URD6); assay: BLI, Fab on Ni-NTA sensor, monomeric HA head in solution
[4] = target: H14N6 A/mallard/Wisconsin/10OS3941/2010 hemagglutinin, monomeric HA1 head (Influenza A virus H14N6 A/mallard/Wisconsin/10OS3941/2010); assay: as above
[5] = target: H4N6 A/America black duck/New Brunswick/00464/2010 hemagglutinin, monomeric HA1 head (Influenza A virus H4N6 A/America black duck/New Brunswick/00464/2010); assay: as above
[6] = target: rsH14WIv1 monomeric HA1 head; assay: as above
[7] = target: rsH14WIv2 monomeric HA1 head; assay: as above
[8] = target: rsH4NBv1 monomeric HA1 head; assay: as above
[9] = target: rsH4NBv3 monomeric HA1 head; assay: as above

Substance	fold KD greater than wildtype H1 SI-06 [1] [fold]	fold tighter binding than wildtype H1 SI-06 [2] [fold]	Kd [3] [nM]	Kd [4] [nM]	Kd [5] [nM]	Kd [6] [nM]	Kd [7] [nM]	Kd [8] [nM]	Kd [9] [nM]
C05 Fab	1.3	> 10	1100	> 100000	> 100000	1400	65	> 100000	340
CH67 Fab	17		570	> 100000	> 100000	9500	310	> 100000	1600
